In the supplement of paper PMC10567573:
± gives the standard deviation.

Assay: protein stability index of a GFP-peptide fusion (GPS, HEK-293T) (PSI 1-6); higher = more stable
Details: c terminus: a fixed tail appended
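Note: 24-mer peptide tiles fused after GFP, lentivirally expressed, FACS-sorted into six equal bins by GFP/DsRed ratio, decoded by Illumina sequencing, PSI is the read-weighted mean bin number.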

Sequence	protein stability index (treatment: DMSO)	protein stability index (treatment: MLN4924 1 uM, 8 h)
DITRYYLCLQLRDDIVSGRLPCSF [EPB41L3]	2.97 ± 0.57	2.63 ± 0.5
DIYYNNMEEVCGGEKPYLSPDILE [ATL3]	3.72 ± 0.57	3.59 ± 0.27
DKFQWLAGLAPPSLFARAMQVLVT [ANKRD9]	2.56 ± 0.44	2.29 ± 0.15
DKMEGNPICVQIPWDKNPEALAKW [CRY1]	4.54 ± 0.094	4.33 ± 0.24
DKRRDLAHLAAEVEGKCLQSGFEM [TRIM39]	3.97 ± 0.18	4.03 ± 0.36
DKVRALEEANADLEVKIHDWYQKQ [KRT15]	4.4 ± 0.24	4.3 ± 0.36
DLAALKQRLEEETRKREDAEHNLV [PRPH]	4.96 ± 0.46	4.6 ± 0.4
DLKARIDQNTVVTRQLSEENANLQ [MTUS2]	4.83 ± 0.14	4.93 ± 0.083
DLLHGPECRSSVTSDSEGAHVNTL [PHTF1]	4.33 ± 0.14	4.61 ± 0.35
DLLKFEKKFQSEKAAGSVSKSTQF [FIS1]	3.82 ± 0.18	3.53 ± 0.18
DLNKDKPVIPAAALAGYTGSGPIQ [ETS1]	4.2 ± 0.13	4.14 ± 0.25
DLRSGTLYSLTLYGLRGPHKADSI [TNXB]	2.16 ± 0.48	1.95 ± 0.27
DLSSESSIKKKFLKRKGKTDSPWI [EHMT1]	3.42 ± 0.37	3.66 ± 0.26
DLVLHTNYTATVRGLRGPNLTSPA [TNXB]	2.79 ± 0.31	2.71 ± 0.32
DLVQWTRHMEAVKAQLLEQAQGQL [SOAT2]	2.62 ± 0.56	2.69 ± 0.24
DNIKYQPKGGQVQIVTKKIDLSHV [MAP2]	3.34 ± 0.38	3.47 ± 0.3
DPHNSRRGFFFSHVGWLLVRKHPA [SCD]	2.33 ± 0.27	2.3 ± 0.35
DQGGPVEILPFLYLGSAYHASKCE [DUSP5]	2.34 ± 0.27	2.43 ± 0.14

Sequence	protein stability index (treatment: DMSO)	protein stability index (treatment: MLN4924 1 uM, 8 h)
DRAAKRLSLESEGAGEGAAASPEL [TPPP]	5.38 ± 0.14	5.32 ± 0.37
DRERQPLLDRARGAAAQGQTQTVA [PI4K2A]	5.22 ± 0.18	5.13 ± 0.28
DRFYVINYLVRLSFHNLKFDCSTA [ZNF277]	2.98 ± 0.88	2.54 ± 0.43
DRTWTLCGTPEYLAPEVIQSKGHG [PRKX]	3.91 ± 0.48	3.97 ± 0.35
DRYIAICNPLRYSVLMGHGVCMGL [OR10K2]	2.54 ± 0.27	2.43 ± 0.43
DSGFLGLRPTSVDPALRRRRRGPR [NOP53]	5.15 ± 0.4	5.17 ± 0.25
DSLHPRPPYLPLAVPEDLADRLVR [FUT8]	4.14 ± 0.13	4.06 ± 0.14
DSRRIFVGQDNGAVMEFHVSEDFN [WDFY1]	4.07 ± 0.32	4.22 ± 0.11
DTELLGQATLPVGSPSRPLSRRQL [C2CD2L]	4.74 ± 0.18	4.81 ± 0.15
DTGVGKSSIVWRFVEDSFDPNINP [RAB22A]	2.93 ± 0.28	3.08 ± 0.29
DVHHGNGTQHMFEDDPSVLYVSLH [HDAC6]	2.97 ± 0.34	2.93 ± 0.31
DVKDWWLFGFYFCMPLVCTAIFYT [EDNRA]	2.76 ± 0.45	3.56 ± 0.84
DVLKYSYVRLVCKDVRAPSRPAVG [ZSWIM9]	2.25 ± 0.26	1.83 ± 0.22
DVQNKLKESAQCVGDEFLNCKLAT [SNX8]	3.43 ± 0.21	3.42 ± 0.24
DWGPCSGSCGQGRTIRHVYCKTSD [ADAMTSL2]	3.43 ± 0.25	3.44 ± 0.33
DYDDGFSMKHTATARFQRNHRLIS [SMARCE1]	2.99 ± 0.1	3.19 ± 0.31
DYFERNWEPRRDMWVRFRAFEAAR [ZSWIM9]	2.56 ± 0.12	2.66 ± 0.32
DYSDHPSGGSYRDSYESYGNSRSA [RBMX]	4.43 ± 0.36	4.44 ± 0.26
